These results are taken from article PMC6000670 (2018).

The experiment deals with Hsp90 (Saccharomyces cerevisiae, UniProt P02829). The experiment is described as follows: ITC.
Hsp90, sequence (P02829 whole entry): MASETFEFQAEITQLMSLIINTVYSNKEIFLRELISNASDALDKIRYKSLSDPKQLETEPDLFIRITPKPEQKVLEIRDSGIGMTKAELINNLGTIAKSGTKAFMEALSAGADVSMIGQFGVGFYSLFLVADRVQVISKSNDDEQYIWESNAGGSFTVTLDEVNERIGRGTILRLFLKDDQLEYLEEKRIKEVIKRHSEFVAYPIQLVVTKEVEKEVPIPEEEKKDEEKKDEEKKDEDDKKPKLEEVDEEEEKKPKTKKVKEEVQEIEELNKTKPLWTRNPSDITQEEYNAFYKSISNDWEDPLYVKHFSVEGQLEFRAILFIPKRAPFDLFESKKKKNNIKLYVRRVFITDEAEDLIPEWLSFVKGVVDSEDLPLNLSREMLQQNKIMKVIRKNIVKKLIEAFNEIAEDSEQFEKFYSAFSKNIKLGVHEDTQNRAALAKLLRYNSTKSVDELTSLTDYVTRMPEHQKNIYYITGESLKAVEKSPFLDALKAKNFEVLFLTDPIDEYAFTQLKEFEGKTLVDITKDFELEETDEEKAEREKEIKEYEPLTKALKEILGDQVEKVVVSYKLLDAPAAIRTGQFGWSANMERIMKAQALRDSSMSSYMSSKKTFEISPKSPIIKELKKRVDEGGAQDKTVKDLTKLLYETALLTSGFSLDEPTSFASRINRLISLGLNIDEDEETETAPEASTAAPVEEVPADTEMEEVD

B1: Sti1 (protein)
chain: MSLTADEYKQQGNAAFTAKDYDKAIELFTKAIEVSETPNHVLYSNRSACYTSLKKFSDALNDANECVKINPSWSKGYNRLGAAHLGLGDLDEAESNYKKALELDASNKAAKEGLDQVHRTQQARQAQPDLGLTQLFADPNLIENLKKNPKTSEMMKDPQLVAKLIGYKQNPQAIGQDLFTDPRLMTIMATLMGVDLNMDDINQSNSMPKEPETSKSTEQKKDAEPQSDSTTSKENSSKAPQKEESKESEPMEVDEDDSKIEADKEKAEGNKFYKARQFDEAIEHYNKAWELHKDITYLNNRAAAEYEKGEYETAISTLNDAVEQGREMRADYKVISKSFARIGNAYHKLGDLKKTIEYYQKSLTEHRTADILTKLRNAEKELKKAEAEAYVNPEKAEEARLEGKEYFTKSDWPNAVKAYTEMIKRAPEDARGYSNRAAALAKLMSFPEAIADCNKAIEKDPNFVRAYIRKATAQIAVKEYASALETLDAARTKDAEVNNGSSAREIDQLYYKASQQRFQPGTSNETPEETYQRAMKDPEVAAIMQDPVMQSILQQAQQNPAALQEHMKNPEVFKKIQTLIAAGIIRTGR
modifications: Hsp90 in complex with LA1011 (1 mM)
The molecule B1 displayed a Kd of 320 nM.
